The target in data set [1] is T1, hpTEN (Hansenula polymorpha (Ogataea …, UniProt R4IT35 1-159)).
T1 sequence: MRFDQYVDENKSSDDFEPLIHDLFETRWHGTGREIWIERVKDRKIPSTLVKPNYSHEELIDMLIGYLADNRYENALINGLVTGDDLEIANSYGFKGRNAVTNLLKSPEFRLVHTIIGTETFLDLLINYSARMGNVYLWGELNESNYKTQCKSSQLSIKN
Nature of the data set: MST.

Data set [2] deals with T1, hpTEN. Nature of the data set: NMR titration.
For data set [3], the target named is T2, hpTEN N53A/S55A/R110A (Hansenula polymorpha (Ogataea …, UniProt R4IT35 1-159, N53A;S55A;R110A)).
T2 sequence: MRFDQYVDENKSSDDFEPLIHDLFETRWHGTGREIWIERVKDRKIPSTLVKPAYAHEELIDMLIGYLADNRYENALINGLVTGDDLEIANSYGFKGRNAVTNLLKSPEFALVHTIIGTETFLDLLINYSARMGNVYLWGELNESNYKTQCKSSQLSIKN
Nature of the data set: MST.

In data set [4] the target is T3, hpTEN N53A/S55A/R110A/E119A (Hansenula polymorpha (Ogataea …, UniProt R4IT35 1-159, N53A;S55A;R110A;E119A)).
T3 sequence: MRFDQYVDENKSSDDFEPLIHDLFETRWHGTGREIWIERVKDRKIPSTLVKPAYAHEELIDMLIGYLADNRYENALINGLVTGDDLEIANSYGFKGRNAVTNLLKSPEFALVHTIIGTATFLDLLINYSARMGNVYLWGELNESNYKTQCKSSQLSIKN
Nature of the data set: MST.

B1: FAM-E4 heteroduplex (DNA:RNA)
DNA: GTGGCGGGGTGGCG
?: CGCCACCCCGCCAC
One may read the Kd as the equilibrium constant for the complex coming apart. High values mean weaker binding, low ones tighter binding. Take B1: in data set [1], the Kd came to 900 ± 200 µM.

B2: E9 RNA-DNA half-fork (DNA:RNA)
DNA: GGGTGGC
RNA: GCCACCCUUCGUCA
For the molecule B2, binding in data set [2] was put at a Kd of 4000 ± 2000 µM.

B3: E4 RNA-DNA heteroduplex 2 (DNA:RNA)
DNA: GTGGCGGGGTGGCG
?: CGCCACCCCGCCAC
As to B3, the Kd in data set [2] is 900 ± 200 µM.

B4: E3 RNA-DNA heteroduplex 1 (DNA:RNA)
DNA: GGGTGGCG
?: CGCCACCC
B4 had a Kd in data set [2] of 1400 ± 300 µM.

On to CGCCACCC (ssRNA) [E1 ssRNA 1], for which binding in data set [2] was characterised by a dissociation constant (Kd) of 5000 ± 2500 µM. Same read-out and setting: the figure for CGCCACCCCGCCAC (ssRNA) [E5 ssRNA 2] is 5000 ± 3000 µM. On to GTGGCGGGGTGGCG (ssDNA) [FAM-ssDNA E2], for which, in data set [1], binding was put at a Kd of 1000 ± 200 µM.

B5: FAM-E8 fork (DNA:RNA)
DNA: CTGTTTCGGGTGGC
RNA: GCCACCCUUCGUCA
With B5, the figures for the Kd in data set [1], in data set [3] and in data set [4] were 400 ± 200 µM, about 300 µM and about 300 µM, respectively.

The values above are taken from paper PMC5814841.
